To fix the notation:
B1: h0311-L0H2 (antibody, human IgG4 S228P, kappa, V domains shown)
VH: QVQLVQSGAEVKKPGSSVKVSCKASGYIFTDYNMHWVRQAPGQGLEWMGEINPNNGVVVYNQKFKGTTTLTVDKSTSTAYMELSSLRSEDTAVYYCTRALYHSNFGWYFDSWGQGTLVTVSS
VL: EIVLTQSPATLSLSPGERATLSCKASQSVDYDGDSHMNWYQQKPGQAPRLLIYTASNLESGIPARFSGSGSGTDFTLTISSLEPEDFAVYYCQQGNEDPWTFGQGTKVEIKR
notes: also called Ab15; huAb 0311-L0H2
B2: h0302-L1H1 (antibody, human IgG4 S228P, kappa, V domains shown)
VH: QVQLVQSGAEVKKPGSSVKVSCKASGYTFSDFNIHWVRQAPGQGLEWMGYINPYTDVTVYNEKFKGRVTITSDKSTSTAYMELSSLRSEDTAVYYCASYFDGTFDYALDYWGQGTLVTVSS
VL: B1 VL with K24R, Q27E, Y31N, D32Y, D34L, H36F, G72R, G95S, N96K, D98L
notes: also called Ab8; huAb 0302-L1H1
B3: h0311-L1H1 (antibody, human IgG4 S228P, kappa, V domains shown)
VH: B1 VH with T67R, T68V, L70I
VL: B1 VL with E1D, T73A
notes: also called Ab14; huAb 0311-L1H1
B4: h0301-L0H1 (antibody, human IgG4 S228P, kappa)
heavy: not shown
light: EIVLTQSPATLSLSPGERATLSCKASQSVDYDGDNYMNWYQQKPGQAPRLLIYAASNLESGIPARFSGSGSGTDFTLTISSLEPEDFAVYYCHLSNEDLSTFGGGTKVEIKRTVAAPSVFIFPPSDEQLKSGTASVVCLLNNFYPREAKVQWKVDNALQSGNSQESVTEQDSKDSTYSLSSTLTLSKADYEKHKVYACEVTHQGLSSPVTKSFNRGEC
notes: also called Ab2; huAb 0301-L0H1
B5: h0301-L0H2 (antibody, human IgG4 S228P, kappa)
heavy: not shown
light: B4 light
notes: also called Ab3; huAb 0301-L0H2
B6: h0301-L1H1 (antibody, human IgG4 S228P, kappa)
heavy: not shown
light: B4 light with E1N
notes: also called Ab5; huAb 0301-L1H1
B7: h0301-L1H2 (antibody, human IgG4 S228P, kappa)
heavy: not shown
light: B4 light with E1N
notes: also called Ab6; huAb 0301-L1H2
B8: h0302-L0H2 (antibody, human IgG4 S228P, kappa, V domains shown)
VH: B2 VH with M48I, V68A, I70L
VL: B1 VL with K24R, Q27E, Y31N, D32Y, D34L, H36F, G95S, N96K, D98L
notes: also called Ab10; huAb 0302-L0H2

Changes are numbered by the printed parent chain.

In one test the target is T1, cynoCSF1R ECD-Fc (cynomolgus).
T1 construct: also called cynomolgus CSF1R ECD
The test can be described thus: competition ELISA, blocking of human CSF1 binding to cynoCSF1R ECD-Fc. The protocol:
The humanized antibodies, along with the parental chimeric antibodies (cAbs), were tested for their ability to block human CSF1 binding to human and cynomolgus CSF1R ECD, as follows.
Recombinant Human CSF1 (M-CSF; R&D Systems) was biotinylated using an NH₂-Biotin Labeling Kit (Dojindo Molecular Technologies). One hundred μl of 1 μg/ml biotinylated CSF1 in PBST/0.1% BSA was added to the wells of Reacti-Bind Streptavidin coated plates (Pierce) pre-blocked with SuperBlock blocking buffer (Pierce) according to the manufacturer's instructions. Fifty μl of 0.5× serial dilutions of the humanized antibody or parental chimeric antibody, beginning with 2000 ng/ml, was incubated with 50 ng/ml hCSF1R ECD.506-Fc (SEQ ID NO: 6; FivePrime Therapeutics) or 50 ng/ml cynoCSF1R ECD-Fc (FivePrime Therapeutics, SEQ ID NO: 8, but without the 19 amino acid leader sequence) in 100 μl PBST/0.1% BSA for 90 min at RT, after which the admix was transferred to one or more wells of a ligand-coated plate. After 90 min at RT, wells were washed with PBST, and a 1:5000 dilution of an Fc-fragment-specific peroxidase-conjugated goat anti-human IgG (Jackson Immuno Research) in PBST/0.1% BSA was added to each well. After incubation at RT for 60 min, wells were washed with PBST/0.1% BSA, and o-phenylenediamine dihydrochloride peroxidase substrate (Sigma) was added to each well. After incubation at RT for 30 min, A450 values of each well were read directly on a SpectraMaxPlus spectrophotometer with SoftMaxPro software (Molecular Devices).
In turn, B1 came in with an IC50 of 0.026 µg/mL.
Molecule B2 came in with a half-maximal inhibitory concentration (IC50) of 0.0605 µg/mL.
Still for that read-out and setting: in the case of B3 it was 0.0247 µg/mL; in that of B4, 0.0274 µg/mL; in that of B5, 0.028 µg/mL.
The molecule B6 registered an IC50 of 0.0311 µg/mL.
The same measure, in the same setting: under B7 stands 0.0278 µg/mL.

In another test the target is human CSF1R on CSF1R (SEQ ID NO: 2)-transfected CHO cells (human, UniProt P07333 20-972). The experiment in a line: cell-based or functional assay.
In the case of B1, the “IC50, inhibition of CSF1-induced CSF1R phosphorylation (head prints 'Human CSF1/Human CSF1R ECD IC50')” value was 0.435 µg/mL and the “IC50, inhibition of IL34-induced CSF1R phosphorylation (head prints 'Human IL34/Human CSF1R ECD IC50')” value was 0.633 µg/mL.
On the same counts, the results for B2 are 0.742 µg/mL and 0.364 µg/mL.
On the same counts, the results for B3 are 0.508 µg/mL and 0.667 µg/mL.
Take B8: the “IC50, inhibition of CSF1-induced CSF1R phosphorylation (head prints 'Human CSF1/Human CSF1R ECD IC50')” value stood at 0.438 µg/mL and the “IC50, inhibition of IL34-induced CSF1R phosphorylation (head prints 'Human IL34/Human CSF1R ECD IC50')” value stood at 0.474 µg/mL.
The matching figures for B4: 0.778 µg/mL and 0.453 µg/mL.
On the same counts, the results for B5 are 1.32 µg/mL and 0.481 µg/mL.
On the same counts, the results for B6 are 0.814 µg/mL and 0.384 µg/mL.
In the case of B7, the “IC50, inhibition of CSF1-induced CSF1R phosphorylation (head prints 'Human CSF1/Human CSF1R ECD IC50')” value amounted to 0.682 µg/mL and the “IC50, inhibition of IL34-induced CSF1R phosphorylation (head prints 'Human IL34/Human CSF1R ECD IC50')” value was 0.397 µg/mL.

The target in another test is T2, mCSF1R ECD-Fc (mouse).
T2 construct: also called mouse CSF1R ECD
The experiment in a line: ELISA, plate coated with mCSF1R ECD-Fc, detection anti-human kappa-HRP, A450. The protocol: (§1) Ninety-six well clear-bottom ELISA plates were coated overnight with 1 μg/ml recombinant hCSF1R ECD.506-Fc (SEQ ID NO: 6; FivePrime Therapeutics) or Human M-CSF R Fc Chimera (R&D Systems) in PBS. The next morning, wells were washed four times with 0.05% Tween20 in PBS (PBST) and blocked with Blocker-Blotto (Pierce). Fifty μl of 0.5× serial dilutions of the humanized antibody or parental chimeric antibody, beginning with 2000 ng/ml, diluted 1:1 in Blocker-Blotto were added to the CSF1R-coated wells. After incubation at room temperature (RT) for 90 min, wells were washed four times with PBST, and a 1:5000 dilution of a peroxidase-conjugated Goat anti-Human kappa Light chain antibody (Sigma) in Blocker-Blotto was added to each well. After incubation at RT for 60 min, wells were washed four times with PBST, and 50 μl o-phenylenediamine dihydrochloride peroxidase substrate (Sigma) was added to each well. After incubation at RT for 30 min, A450 values of each well were read directly on a SpectraMaxPlus spectrophotometer with SoftMaxPro software (Molecular Devices).
The binding curve for each humanized antibody binding to mouse CSF1R ECD was determined as described above for human CSF1R, except the wells of the clear-bottom ELISA plates were coated overnight with 2 μg/ml recombinant mCSF1R ECD-Fc (FivePrime Therapeutics, SEQ ID NO: 93).
On the technique in general: In an ELISA, binding on a coated surface is turned into a signal by an enzyme label.
For the molecule B1, the binding result was “no binding (tested: 2000 ng/ml)”.
On the same count and under the same terms, under B2 stands “no binding (tested: 2000 ng/ml)”; under B3, “no binding (tested: 2000 ng/ml)”.
Same read-out and setting: under B8 stands “no binding (tested: 2000 ng/ml)”.
On to B4, for which the binding result is given as “no binding (tested: 2000 ng/ml)”.
As to B5, the binding result was “no binding (tested: 2000 ng/ml)”.
Still for that read-out and setting: under B6 stands “no binding (tested: 2000 ng/ml)”; under B7, “no binding (tested: 2000 ng/ml)”.

For another test, the target named is T1, cynoCSF1R ECD-Fc. The experiment in a line: competition ELISA, blocking of human IL34 binding to cynoCSF1R ECD-Fc.
The molecule B1 showed an IC50 of 0.0408 µg/mL.
Regarding B2, the IC50 came out at 0.676 µg/mL.
In the case of B3, the IC50 was 0.0537 µg/mL.
On the same count and under the same terms, under B8 stands 0.248 µg/mL; under B4, 0.0364 µg/mL; under B5, 0.0374 µg/mL.
The same measure, in the same setting: in the case of B6 it was 0.0424 µg/mL; in that of B7, 0.0365 µg/mL.

For another test, the target named is T3, hCSF1R ECD.506-Fc (human).
T3 construct: also called human CSF1R ECD-Fc fusion protein; human CSF1R ECD
The test can be described thus: ELISA, plate coated with human CSF1R ECD-Fc. The method, then: as §1
Molecule B1 returned a 50% effective concentration (EC50) of 0.0115 µg/mL.
B2: the response was half-maximal at 0.0214 µg/mL (EC50).
The molecule B3 gave a 50% effective concentration (EC50) of 0.0143 µg/mL.
Turning to B8, the EC50 came out at 0.0179 µg/mL.
On to B4, for which the response was half-maximal at 0.0142 µg/mL (EC50).
On the same count and under the same terms, under B5 stands 0.0148 µg/mL; under B6, 0.0165 µg/mL; under B7, 0.0162 µg/mL.

The target in a further test is T4, hCSF1R ECD.506 (human, UniProt P07333 20-506).
T4 construct: also called human CSF1R ECD
The experiment in a line: SPR Biacore T100, antibody captured on anti-human IgG, hCSF1R ECD.506 as analyte, 1:1 model. The protocol:
The kₐ, kd, and KD for binding to human CSF1R ECD was determined for each of the humanized antibodies as follows.
Binding kinetics of anti-CSF1R humanized antibodies to CSF1R ECD was determined using Biacore T100 Surface Plasmon Resonance (SPR) (GE Healthcare Life Sciences, Piscataway, N.Y.). Each of the humanized anti-CSF1R antibodies was captured on a CM5 sensor chip immobilized with anti-Human IgG antibody using the Human antibody capture kit (GE Healthcare Life Sciences, Piscataway, N.Y.) at 150 RU so that the Rmax value for hCSF1R ECD.506 (SEQ ID NO: 5) binding was 100 RU. Rmax values of less than 150 RU are recommended for accurately determining kinetic values. […] The association constant, dissociation constant, affinity, and binding capacity of each of the Fabs for human CSF1R ECD was calculated using the Biacore T100 Evaluation software package using the 1:1 binding model.
(In general: In SPR one partner is held on a chip, and binding of the other changes the refractive index at the surface.)
In turn, B1 showed a dissociation constant Kd of 0.35 nM, a koff of 0.000473 s⁻¹ and a kon of 1.34e+06 M⁻¹ s⁻¹.
The matching figures for B2: 1.17 nM, 0.00404 s⁻¹ and 3.47e+06 M⁻¹ s⁻¹.
The matching figures for B3: 0.5 nM, 0.000664 s⁻¹ and 1.32e+06 M⁻¹ s⁻¹.
The matching figures for B8: 0.53 nM, 0.00179 s⁻¹ and 3.4e+06 M⁻¹ s⁻¹.
B4 gave a Kd of 0.34 nM, a koff of 0.00122 s⁻¹ and an on-rate constant (kon) of 3.56e+06 M⁻¹ s⁻¹.
On the same counts, the results for B5 are 0.28 nM, 0.00066 s⁻¹ and 2.32e+06 M⁻¹ s⁻¹.
On the same counts, the results for B6 are 0.32 nM, 0.000921 s⁻¹ and 2.87e+06 M⁻¹ s⁻¹.
On the same counts, the results for B7 are 0.25 nM, 0.000742 s⁻¹ and 2.95e+06 M⁻¹ s⁻¹.

A further test deals with T1, cynoCSF1R ECD-Fc. The experiment in a line: ELISA, plate coated with cynoCSF1R ECD-Fc. The protocol:
as §1
The binding curve for each humanized antibody binding to cynomolgus CSF1R ECD was determined as described above for human CSF1R, except the wells of the clear-bottom ELISA plates were coated overnight with 2 μg/ml recombinant cynoCSF1R ECD-Fc (FivePrime Therapeutics, SEQ ID NO: 8, but without the 19 amino acid leader sequence).
In turn, B1 yielded an EC50 of 0.0175 µg/mL.
Still for that read-out and setting: in the case of B2 it was 1.06 µg/mL; in that of B3, 0.0309 µg/mL; in that of B8, 0.155 µg/mL.
Same read-out and setting: under B4 stands 0.0144 µg/mL; under B5, 0.0138 µg/mL; under B6, 0.0167 µg/mL.
In turn, B7 yielded an EC50 of 0.0166 µg/mL.

By IC50 is commonly meant the concentration needed to halve the response being measured. Lower therefore signals higher potency. The EC50 is the concentration that produces a half-maximal response. Read a high EC50 as lower potency in that assay. One may read the Kd as the concentration at which binding is half-saturated. What is called koff is the rate constant with which the complex falls apart. Read a low koff as slow dissociation. One may read the kon as a measure of how fast the partners come together.

(Values after patent US20220153851A1 (Five Prime, published 2022).)
